{
  "source": "paper PMC6415414",
  "conditions": "N-glycosylation at N74",
  "data": [
    {"substance": "Candida antarctica lipase B (CaLB): Asn74Ser, S. cerevisiae MTP culture supernatant, pNPB assay", "values": [
      {"measurement": "enzymatic_activity", "result": "decreases"}
    ]},
    {"substance": "Candida antarctica lipase B (CaLB): Asn74Ala, S. cerevisiae MTP culture supernatant, pNPB assay", "values": [
      {"measurement": "enzymatic_activity", "result": "no change, 94% relative hydrolytic activity"}
    ]},
    {"substance": "Candida antarctica lipase B (CaLB): Asn74Ala (CaLB-degl and CaLB-degl-lid), residual activity after 10 min heat incubation", "values": [
      {"measurement": "stability_or_folding", "result": "decreases, >50% activity lost at 48 °C and almost inactive at 58 °C, vs 42% relative activity at 58 °C for wt"}
    ]},
    {"substance": "Candida antarctica lipase B (CaLB): Asn74Ala (CaLB-degl), purified free enzyme, pNPB assay", "values": [
      {"measurement": "enzymatic_activity", "result": "decreases, hydrolytic activity 10.49 to 7.57 µmol(min∙mg)−1"}
    ]},
    {"substance": "Candida antarctica lipase B (CaLB): Asn74Ala (CaLB-degl), ε-caprolactone polymerization in aqueous toluene", "values": [
      {"measurement": "enzymatic_activity", "result": "increases, Free enzyme: Mn 1100 to 1900 Da, Coligo 13% to 29% (factor 1.7). Immobilized: Mn 5200 to 6700 Da, Coligo 86% to 91%."}
    ]}
  ]
}
